Experimental findings from the DeepSol protein solubility set are described below.

This data set is described as follows: soluble on expression in E. coli; label from the status in PepcDB or PDB records.
“MKTMTLYVCQNCGYQSAKWLGKCPDCSAWNSLVEEVRGKGKGPSAPLSGVAPVPICDVAGEAEERLPCGISEFDRVLGGGLVAGSVILIGGDPGIGKSTLLLQVMDHLARTVGPVLYVSGEESARQARLRGERLGIRAKELLILAETALETVLAQIGAVAPRAVVIDSIQTMYAPGLESAPGSVSQVRECAGRLMVAAKRSAIPTFIVGHVTKDGSIAGPRVLEHMVDTVLYFEGDRGHAFRILRAVKNRFGSTNEIGVFEMKEGGLCEVRNPSEIFLSERPLGVSGSAVVTTIEGSRPLLVELQALVTPSSLGVPRRTTLGVDANRLALLVAVLDKKVGLHMAGQDIFLNAAGGARVSEPAADLGMVAALASSHLDKVIDPQTVVVGEVGLAGEVRAITQPETRVREAAKLGFTRAVIPAGSLKQVTAVEGMEVIGVKSVEEALDRLLLEHHHHHH”: the “soluble on expression in E. coli” value is reported as “not soluble”.
With “SLTTSTALVLDINNANLDQQQAFAITAANRDEILQAASSIRLGDVMSVHDFGRSATDASYLDTMLEDVKVIDQKESGKQLNEIAFLSRQISDSVQPSDLQRVISRIPIIGFVISRLTFMQRRALNRFDSVKGQMDILADGISSISTGYLEQNVKLDAMYNDVLADIRAQGINIVASKLVIDSIEGELQTRQEEFKKNKTNTLLSIEINDIQYQLDTLKKRRKDMISMQQKSFDDLTMLRMMQQNNLALVDKFRSVEELTLPAAKRGHLIVDALEKQNAGVKLIEAIDDATNALALRQAELVKDNTIRIAKQSHRSVYDAKTLDRISTLMNEAIAEAHAIHKSNSDGHLALEKRAIEWQEERRQRLINGMGKNKLSNH”, the “soluble on expression in E. coli” value was “not soluble”.
Next, “AQGQTVYFHAWGGSQEINHYLQWANKELQSKYQVTLKHVKVSDISETIPRLIAEKAADKNTNGSVDMVWINGENFKSMKDNQLLFGPFTENLPSWKYVDKMLPIDVDFSEPTDGLEAPWGVGQLVFIHDSENLTNPPHSFAEMLSYAQKKPNSLSYPRPPEFHGTSVLKSMLIELTNNNPALQKPVSESDFNAVTAPLWDYLEKFHKVAWRGGKQFPAGTSETIQLLDDGQLDLAVTFNPNAVYSAQANGNLANTTKAYAMDSGALSNIHFLAIPWNAKASAGAQVAINFLLSPEAQSRKGDLNVWGDPSVLSSKYLTGSAKNTQQFKSVSEPHPSWQAAIEKEWLKRFGS”: “not soluble”; “MASWTLVDASAIAVRHPYTFYKPDAETIDRVAAGESVKLIFAFDTDNPDAPRAERLWVTVEGIEADGAFSGRLDNYPQYIRDLSLGERIVFEARHIINTEHDPRETPISRYARRCFVTRRVIDEGKAVGYLYREAPEEENDSGWRLMAGDESDDYMNTAGTTAYVSLGSVLNADDSILPLLDAPPGRAFERLADGSFIEVQGPEG”: “not soluble”; “MSLEDYTRIVADRMEGQSQVQVRAEGNVVVERNRTTLNADWADYDQSGDTVTAGDRFALQQDGTLIRGETLTYNLEQQTGEAHNVRMETEHGGRRLQSVSRTAEMLGEGHYKLTETQFNTCSAGDAGWYVKAASVEADREKGIGVAKHAAFVFGGVPIFYTPWADFPLDGNRKSGLLVPSLSAGSDGVSLSVPYYFNLAPNLDATFAPGVIGERGAVFDGQVRYLRPDYAGQSDLTWLPHDKKSGRNNRYQAKWQHRHDISDTLQAGVDFNQVSDSGYYRDFYGNKEIAGNVNLNRRVWLDYGGRAAGGSLNAGLSVLKYQTLANQSGYKDKPYALMPRLSADWRKNTGRAQIGVSAQFTRFSHDSRQDGSRLVVYPDIKWDFSNSWGYVRPKLGLHATYYSLNRFGSQEARRVSRTLPIVNIDSGMTFERNTRMFGGGVLQTLEPRLFYNYIPAKSQNDLPNFDSSESSFGYGQLFRENLYYGNDRINTANSLSAAVQSRILDGATGEERFRAGIGQKFYFKNDAVMLDGSVGKKPRSRSDWVAFASSGIGSRFILDSSIHYNQNDKRAENYAVGASYRPAQGKVLNARYKYGRNEKIYLKSDGSYFYDKLSQLDLSAQWPLTRNLSAVVRYNYGFEAKKPIEVLAGAEYKSSCGCWGAGVYAQRYVTGENTYKNAVFFSLQLKDLSSVGRNPADRMDVAVPGYIPAHSLSAGREGHHHHHH”: “not soluble”.
Then “MAHHHHHHMRRSSMKFGLRQILSEELGKAAIFLRFKANEYIASTARACQTLTGAETNPEQANKRRKHRQVYEEILRQRQQVAQEAARRAMEGKSLRERLMASASAALKGLKEATSTNAGALALLQHCTAAHAAEVAVEQGIDVKSVTMQVEERKTGSQVGSETVVVGYIDAPNTSEEEMMAFAEQLSKKCPMANAMRGKIEWRRANGEVQHNDEQTTGNDNSVGSTSDKAGDAGSIPHGMPGTRYYSHESMRRGAGGVGDGDELHLPGVTKGSGKGPDK”, with “soluble”.
For “MGSDKIHHHHHHMTKSLNGLRILNTRPREQAQVLNKKIIESGGIPIDCPTMEIMASETNWINNLPDLTSVNQAIFVSTNAVRYFMMELASKNINWPNSIRVTAIGKGTSRVLNEFNIQVSDVPELPDSEHLLTLNSLQQIRNQTILLVKGEGGRQLIEEYLMLKGAKLCLLSVYKRVMPAIDQEFINSLWRDDLVDIILLTSEQSIHNLFKMFSIEGQMWLQNKPCLVISDRLAKVASLFGIKKILISHPERMIGALFDYKD”, the “soluble on expression in E. coli” value is “not soluble”.
Then “MAKYCLKKTSKRVSCAKRYKIEKKVRDHNRKVKKEAKKNGTTNKKEKTISVPNSCPFKEEILVQAEQEREKIKVRQEAAKEAAKIHRIEKRKNNLPANFESMVAKASKQGTEFDKKVASAAEHEKFNTLDDKTIKAYASEVRKTVEIADVIIQVLDARDPLGSRSKSVEDQVLKGGKRLVLLLNKIDLVPRENVQKWLEYLRGQFPTIAFKASTQEQKSNIGRFNSAILNNTETSKCVGADIVMKILANYCRNKDIKTSIRVGVVGFPNVGKSSVINSLKRRKACNVGNLPGITKEIQEVELDKNIRLIDSPGVILVSQKDLDPIEVALKNAIRVDNLLDPIAPVHAILRRCSKETIMLHYNLADFNSVDQFLAQLARRIGKLRRGARPDVNAAAKRVLNDWNTGKLRYYTHPPEQGTAKEDIVVPAEVVSQFSKEFDIDAIAEEQNQIVEGLPMESDIIAPHNSDEEEDDDDEMETDVNEKKQTVTSGRKVKGPTKDDDKPVLPESLALEGNVQLNKLIKTAIKKQKKKSKKTANRADKLSDSLGNMLGGDAMEM”, with “not soluble”; and “MAGRPKDPTINKKIYTEIQRLLETTHFRDITIDQISENTGISKATIYRRWKDKSSIIMSAFIEQSQYIAIHNQDNLYDDLFQFLVKIKDIYKTKLGSAVIEILISHQQMEARETFMTNYFNHNRKVLKEIVRKHIQEEEQDLFIDLIFSPIYFNILIKPETLDENYIKKMLNQVLRIYH”, with “not soluble”.
For “GPGSMWVCGEAVLMRALNLLHARVRRCMRFSCRIPPQYCECPCRRMRVCPLRRDVSLIVLLFGLTPTTFSFSATSHDASRTKATRTHTHTHTPLFPARPMGSPLIAVIGPNPAFQKTLALDELRVDEVNRAATVHSYTGGKGTNFCRASACCKESPHFCRTTLHTFVGGKTGERVIDLLHQEGIAVYPVTVPAETRTCITCLDTQNSTMTELIEPSAAVPDDAAKDMDRALLKALEHAGGMAIMGSLPDGSSPDLYTRWTEMAAAAQKPVLIDAVKGIEASLKVPGVHSILKVNMRELNKLTGQSTPESAFEYAMQMWTVRVLAVTDGPRSAYIQERGQPLQVVHIPKVDGVVSPLGAGDTADAIFLAKYIHGTTPVEAFRLALAAASANCLQKEAGVFAQHEMRRIADGITIGSSRPHSSSNTRA”, the “soluble on expression in E. coli” value is given as “not soluble”.
Then “MSLNINKVFYHSSTNMNEVPDNSVDLIITSPPYFNIKDYAKNGTQDLQHSAQHVEDLGALEKYEDYLLGLLKVWLECYRALKPNGKLCINVPLMPMLKKVLNTHYNRHIFDLHADIQHSILHDLNNMLKNKPKMFLLDVYIWKRANPTKRLMFGSYPYPRNFYAQNTIEFIGVFVKDGKPKQPTEEQKEQSQLTQEEWVEFTKQIWEIPIPNKNDIAFGKHAALMPAELARRLIRLYSCVGDVVLDPFSGSGTTLREAKLLKRNFIGYELYENYKPLIEQKLGNLFDFEEGHHHHHH”, with “soluble”; and “SSGLSFSEMEGCRNLLGLLDNDEIMALCDTVTNRLVQPQDRQDAVHAILAYSQSAEELLRRRKVHREVIFKYLATQGIVIPPATEKHNLIQHAKDYWQKQPQLKLKETPEPVTKTEDIHLFQQQVKEDKKAEKVDFRRLGEEFCHWFFGLLNSQNPFLGPPQDEWGPQHFWHDVKLRFYYNTSEQNVMDYHGAEIVSLRLLSLVKEEFLFLSPNLDSHGLKCASSPHGLVMVGVAGTVHRGNTCLGIFEQIFGLIRCPFVENTWKIKFINLKIMGESSLAPGTLPKPSVKFEQSDLEAFYNVITVCGTNEVRHNVKQASDSGTGDQV”, with “soluble”.
On to “APSASFERRQGSVNPYIGRSPLVIKSYAEKLEETIAYFEAQGDELNAARTRTVQGIPTFAWISDSATIDTIQPLIADAVAHQEASGEQVLVQLVIYNLPDRDCAAKASDGEFHLDDDGANKYRAYVDRIVAELSTADADKLHFSIVLEPDSLGNMVTNMHVPKCQGAATAYKEGIAYTIASLQKPNIDLYIDAAHGGWLGWNDNLRPSAEIFKETLDLARQITPNATVRGLAINVSNYNPYKTRAREDYTEWNNAYDEWNYVKTLTPHLQAVGFPAQFIVDQGRSGREGIRTEWGQWCNIRNAGFGIRPTTDQAIVDSANVDAIVWVKPGGESDGTSDVNAVRFDENCRSPASHVPAPEAGEWFNEFVVNLVINANPPLEPTYAAAALEHHHHHH”, for which the “soluble on expression in E. coli” value is reported as “soluble”.
For “ASSSYYEQYHSLNEIYSWIEVMTERYPDMVEKIHIGSSYEKYPLYVLKVSKKEQRAKNAMWIDCGIHAREWISPAFCLWFVGSVTYYYGKEKMHTNLLKHMDFYIMPVVNVDGYDYTWKKDRMWRKNRSLHEKNACVGTDLNRNFASKHWCGEGASSSSCSEIYCGTYPESEPEVKAVADFLRRNIKHIKAYISMHSYSQKIVFPYSYSRSRSKDHEELSLVAREAVFAMENIHRNIRYTHGSGSESLYLAPGGSDDWIYDLGIKYSFTFELRDKGKYGFLLPESYIRPTCSEALVAVAKIASHVVKNV”, the “soluble on expression in E. coli” value is given as “soluble”.
Next, “MGSDKIHHHHHHMAGVTAPLLGLQKKSLREQALSALRTAITSGELEPGRHLVETELSDMLQISRGTLREALRQLEQEGLLSAGPRGRLSVRHLDAKEIRDIYSVRAALESLAARTLCELPDRQHVIGSLRAAIGAMDAAAKGSLEDRIESDLEFHRTLCRLTGNETLLHSWESLEGSIRMSIMFAGLEKGVSNMSVDRHHDIVAAIETGDGSLARKTIREHMDTAADNLVA”: “not soluble”; “MQCLQFDSINLIEHILPDVRFWLVPPSRTHHLHEHFHHISWQTEAIPQTESKPDKPWFALPQTSERQKPEHILVIGAGISGAATAHALASHGISVTVLEARKAAQAASGNRQGLLYAKISPHDTEQTELLLAGYGYTKRLLGHILPESETWGGNGIIHLNYSRTEQQRNHELGLQKHHNHLYRSITSAEAEKIAGIPLSVPYDHPSCGLYWQHGVWLNPPAFVRTLLNHPLIGLHEDTPLTDISHDGEKWIASTPNGTFTATHIIYCTGANSPYLPETNLAALPLRQIRGQTGLTPSTPFSEQLRCAVSGESYISPSWHGLHCYGASFIPNSSHTGWNEAEEASNRQALAHLNPALSESLFAANPNPQKHQGHAAIRCDSPDHLPLVGALGDIAAMRQTYTKLALDKNYRIDTPCPYLPNAYVNTAHGTRGLATAPICAAAIAAQILGLPHPFSQRLRHALHPNRTIIRAIVRRKDLTPLEHHHHHH”: “not soluble”.
